According to paper PMC10461225, “Creation of a Peptide Antagonist of the GFRAL–RET Receptor Complex for the Treatment of GDF15-Induced Malaise” (Journal of Medicinal Chemistry, 2023):
Like-named read-outs stand apart in the source and are kept apart here.

T1: recombinant human GFRAL (S19–E351) (Homo sapiens, UniProt Q6UXV0)
T1 construct: contained a truncated Ser19–Glu351 domain was used for all SPR experiments; His; purchased ACRO Biosystems GFA-H52H3; host or cells: HEK293 cells
T1 sequence (Q6UXV0 19-351): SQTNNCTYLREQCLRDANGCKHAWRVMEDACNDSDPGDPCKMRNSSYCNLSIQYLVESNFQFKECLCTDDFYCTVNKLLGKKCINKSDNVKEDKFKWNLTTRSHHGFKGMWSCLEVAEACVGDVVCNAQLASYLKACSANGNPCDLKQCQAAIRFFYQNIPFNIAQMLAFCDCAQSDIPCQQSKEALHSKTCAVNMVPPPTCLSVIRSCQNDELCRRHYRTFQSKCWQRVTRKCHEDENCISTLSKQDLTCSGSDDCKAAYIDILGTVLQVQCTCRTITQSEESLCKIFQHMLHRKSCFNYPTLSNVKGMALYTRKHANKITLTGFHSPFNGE

T2: Recombinant His-tagged human GFRAL (Ser19–Glu351) (human, UniProt Q6UXV0 19-351)
T2 construct: GDNF family receptor alpha-like (GFRAL), human, extracellular domain S19-E351 as defined by UniProt Q6UXV0; also called GFRAL–ECD; GFRAL (S19–E351); source: bought: ACRO Biosystems (GFA-H52H3), expressed in HEK293 cells
T2 sequence (looked up): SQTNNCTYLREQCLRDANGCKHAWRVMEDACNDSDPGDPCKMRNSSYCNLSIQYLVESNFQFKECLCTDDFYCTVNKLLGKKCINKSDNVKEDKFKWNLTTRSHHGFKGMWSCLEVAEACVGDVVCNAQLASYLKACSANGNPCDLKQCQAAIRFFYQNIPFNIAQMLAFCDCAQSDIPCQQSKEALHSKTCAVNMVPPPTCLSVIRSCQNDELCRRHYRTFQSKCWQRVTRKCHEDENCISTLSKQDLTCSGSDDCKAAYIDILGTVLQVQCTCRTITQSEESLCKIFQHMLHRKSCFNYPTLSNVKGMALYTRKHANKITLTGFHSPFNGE

B1: Recombinant human growth differentiation factor 15 (GDF15) (ligand, UniProt Q99988 195-308, looked up)
chain: ARARNGDHCPLGPGRCCRLHTVRASLEDLGWADWVLSPREVQVTMCIGACPSQFRAANMHAQIKTSLHRLKPDTVPAPCCVPASYNPMVLIQKTDTGVSLQTYDDLLAKDCHCI
notes: Growth differentiation factor 15, human, HEK293-derived commercial recombinant protein; commercial GDF15 is commonly the mature C-terminal cytokine (a disulfide-linked dimer), so the limits should be checked with the supplier; source: bought: Abcam (ab302451), expressed in HEK293 cells

Columns and labels:
Sprague–Dawley rats [1] = details: rat, in vivo, ip, 6 mg/kg
Description: In this set of experiments, rats were treated with the highly emetogenic chemotherapeutic agent, cisplatin. Using this gold-standard preclinical model of CINV, we first determined the effects of a single systemic dose of GRASP administered shortly before cisplatin.
Adult male Sprague–Dawley rats (Charles River) weighing ∼250–270 g on arrival (N = 158) were housed under a 12 h:12 h light/dark cycle in a temperature- and humidity-controlled vivarium (23 ± 1 °C). Animals were fed ad libitum with a standard chow diet (Purina LabDiet 5001) with ad libitum access to tap water and kaolin pellets (Research Diets, K50001) for at least 5 days before the start of the experiment. All animals were naïve to experimental drugs and test treatments before the beginning of the experiment. Rats were habituated in single-hanging wire cages and received saline IP injections every day for 1 week before the onset of the experiment. […]
Using a similar paradigm, the impact of GRASP on cisplatin-induced nausea and anorexia was assessed. […] Food intake and kaolin consumption were measured at 3, 6, and 24 h postinjection.
Food intake and kaolin consumption were analyzed using repeated measures 2 × 3 ANOVAs, 2 × 2 ANOVAs, or one-way ANOVAs followed by Tukey’s post hoc tests. All data were expressed as means ± SEM. […] All data were analyzed using Prism 9 GraphPad Software (San Diego, California).

[2] = target: T1, recombinant human GFRAL (S19–E351); test: SPR, high-capacity carboxyl sensor with immobilised GFRAL, peptide or GDF15 as analyte; details: HEK293-derived recombinant human GDF15, TraceDrawer kinetic evaluation, read-out: binding affinity (KD) of GDF15 control to GFRAL
Description: Peptide binding to a segment of recombinant human GFRAL containing the complete known binding domain of GDF15 and the remaining extracellular domain (S19–E351) of the receptor as defined by UniProt (Q6UXV0) was evaluated by SPR (Figure 1). Initial screening aimed to confirm GFRAL immobilization and system functionality by evaluating the dose–response profile to a commercial formulation of HEK293 cell-derived recombinant human GDF15. […] For example, Yang et al.[6] reported a KD of ∼1 nM for the interaction between untagged GDF15 and purified human GFRAL extracellular domain (ECD) and binding of GDF15 to HEK293 transfectants expressing human GFRAL-EDC (Ser19–Glu351) and GDF15 via SPR and flow cytometry, respectively.
The binding of each peptide to the ECD of GFRAL was initially confirmed from the results of carboxyl-sensor SPR (SI, Figure S9) with bound GFRAL–ECD. A broad range of binding affinities (KD values ranging from […]) was observed. […] We hypothesized this may be due to obstruction of the binding site of GFRAL–ECD in its immobilized state. Thus, we opted for a different SPR approach in which we conjugated GRASP to biotin and immobilized the peptide to the sensor surface, this time via biotin–streptavidin affinity. Increasing concentrations of GFRAL–ECD were then evaluated as the mobile phase against the immobilized GRASP. […]

Sprague–Dawley rats [3] = test: GDF15-induced anorexia and pica (kaolin intake) in rats; format: in vivo, rat
Text: In initial experiments, we examined whether central administration of GRASP (i.e., directly into the fourth ventricle or fourth ICV) would counteract the effects of centrally delivered GDF15 in rats. Because the AP/NTS is located on the dorsal surface of the hindbrain at the caudal end of the fourth ventricle, this route of administration facilitates targeted and selective drug delivery near the sites of GFRAL expression. To assess the impact of these interventions, we measured pica behavior, i.e., the ingestion of non-nutritive substances such as kaolin,[29] as this represents an accurate and reliable proxy for malaise in rats and has been used to examine the effects of agents known to cause nausea in humans.[29]−[31]
To increase the translational impact of this study and more closely mimic a potential clinical scenario, we conducted a dose–response study in which both GRASP and GDF15 were administered systemically to rats via the intraperitoneal (IP) route.
All systemic treatments were delivered by intraperitoneal (IP) injection.
To evaluate the impact of GRASP on GDF15-induced anorexia and nausea (proxied by kaolin ingestion) in rats (n = 10, 400–450 g), GRASP (300 and 3000 pmol), or vehicle control was administered centrally immediately before intraventricular infusion of GDF15 (30 pmol). […]
All data were expressed as means ± SEM.

[4] = target: purified human GFRAL extracellular domain (ECD); details: untagged GDF15, purified human GFRAL ECD, SPR and flow cytometry, ref 6 (Yang et al.), read-out: reported KD of GDF15 for human GFRAL, cited from earlier work
Description: Peptide binding to a segment of recombinant human GFRAL containing the complete known binding domain of GDF15 and the remaining extracellular domain (S19–E351) of the receptor as defined by UniProt (Q6UXV0) was evaluated by SPR (Figure 1). Initial screening aimed to confirm GFRAL immobilization and system functionality by evaluating the dose–response profile to a commercial formulation of HEK293 cell-derived recombinant human GDF15. […] GRASPCy5 binding was evaluated by flow cytometry and compared with results from untransfected HEK293 cells.

[5] = target: T2, Recombinant His-tagged human GFRAL …; test: SPR; GFRAL (S19-E351) immobilised by amine coupling (EDC/NHS) on a high-capacity carboxyl sensor (Nicoya OpenSPR); peptides or GDF15 as analyte; HBSS pH 7.4 running buffer without BSA; 20 uL/min; details: both partners purified

Row | Molecule | kaolin consumption and anorexia induced by cisplatin (Sprague–Dawley rats [1]) | Kd [2] [nM] | kaolin consumption and anorexia induced by GDF15, central (Sprague–Dawley rats [3]; GDF15 30 pmol central administration, vs vehicle) | kaolin consumption and anorexia induced by GDF15, systemic (Sprague–Dawley rats [3]; GDF15 20 μg/kg IP) | Kd ([4]; listed as native ligand) [nM] | Kd [4] [nM] | Kd [5] [nM]
1 | cis-diammineplatinum dichloride [cisplatin] | leads to significant kaolin consumption and anorexia | – | – | – | – | – | –
2 | B1 | – | 6 | induced significant kaolin consumption and anorexia | reliably induced kaolin consumption and modest, albeit statistically significant anorexia | 1 | ~1 | 6.02
